{"source": "patent US20230374153A1", "about": "(PARADIGM IMMUNOTERAPEUTICS, published 2023)", "binders": {"B1": {"name": "ACE2 LVE IgG Fc STR chimeric antibody (LiVE) (Fc fusion)", "chain": "QSTIEEQAKLFLDKFNVEAEDLFYQSSLASWNYNTNITEENVQNMNNAGDKWSAFLKEQSTLAQMYPLQEIQELTVKLQLQALQQNGSSVLSEDKSKRLNTILNTMSTIYSTGKVCNPDNPQECLLLEPGLNEIMANSLDYNERLWAWESWRSEVGKQLRPLYEEYVVLKNEMARANHYEDYGDYWRGDYEVNGVDGYDYSRGQLIEDVEHTFEEIKPLYEHLHAYVRAKLMNAYPSYISPIGCLPAHLLGDMWGRFWTNLYSLTVPFGQKPNIDVTDAMVDQAWDAQRIFKEAEKFFVSVGLPNMTQGFWENSMLTDPGNVQKAVCHPTAWDLGKGDFRILMCTKVTMDDFLTAHHEMGHIQYDMAYAAQPFLLRNGANEGFHEAVGEIMSLSAATPKHLKSIGLLSPDFQEDNETEINFLLKQALTIVGTLPFTYMLEKWRWMVFKGEIPKDQWMKKWWEMKREIVGVVEPVPHDETYCDPASLFHVSNDYSFIRYYTRTLYQFQFQEALCQAAKHEGPLHKCDISNSTEAGQKLFNMLRLGKSEPWTLALENVVGAKNMNVRPLLNYFEPLFTWLKDQNKNSFVGWSTDWSPYADQSIKVRISLKSALGDKAYEWNDNEMYLFRSSVAYAMRQYFLKVKNQMILFGEEDVRVANLKPRISFNFFVTAPKNVSDIIPRTEVEKAIRMSRSRINDAFRLNDNSLEFLGIQPTLGPPNQPPVSGGGGSGGGGSDKTHTCPPCPAPESTRGPSVFLFPPKPKDTLMISRTPEVTCVVVDVSHEDPEVKFNWYVDGVEVHNAKTKPREEQYNSTYRVVSVLTVLHQDWLNGKEYKCKVSNKALPAPIEKTISKAKGQPREPQVYTLPPSRDELTKNQVSLTCLVKGFYPSDIAVEWESNGQPENNYKTTPPVLDSDGSFFLYSKLTVDKSRWQQGNVFSCSVMHEALHNHYTQKSLSLSPGK"}, "B2": {"name": "ACE2 LVE IgG Fc STR YTE chimeric antibody (LiVE Longer) (Fc fusion)", "chain": "B1 chain with M765Y, S767T, T769E"}}, "key": {"[1]": {"target": "T1, FcRn (neonatal Fc receptor) (UniProt P55899 24-297; P61769 21-119)", "T1 construct": "also called FCGRT; purified FcRn receptor", "T1 sequence (P55899 24-297 limits assumed, chain 1 of 2)": "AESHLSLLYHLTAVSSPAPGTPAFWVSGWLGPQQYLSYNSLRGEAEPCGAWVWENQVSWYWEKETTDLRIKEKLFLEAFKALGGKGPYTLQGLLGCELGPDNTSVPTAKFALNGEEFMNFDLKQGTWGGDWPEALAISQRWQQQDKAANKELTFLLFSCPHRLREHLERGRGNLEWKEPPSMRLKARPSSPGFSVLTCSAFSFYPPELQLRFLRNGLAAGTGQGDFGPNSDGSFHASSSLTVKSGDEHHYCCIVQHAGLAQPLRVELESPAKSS", "T1 sequence (P61769 21-119 limits assumed, chain 2 of 2)": "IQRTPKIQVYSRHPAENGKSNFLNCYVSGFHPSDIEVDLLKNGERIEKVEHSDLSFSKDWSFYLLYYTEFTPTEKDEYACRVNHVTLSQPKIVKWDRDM", "assay": "SPR (Biacore, ACRO Biosystems), pH 6.0"}, "[2]": {"target": "T1, FcRn (neonatal Fc receptor)"}}, "note": "Positions count from the first letter of the chain named."}
{"binder": "B1", "values": [{"measurement": "Kd", "setting": "[1]", "value": 517, "unit": "nM"}]}
{"binder": "B2", "values": [{"measurement": "koff", "setting": "[2]", "value": 0.00412, "unit": "s⁻¹"}, {"measurement": "kon", "setting": "[2]", "value": 155000, "unit": "M⁻¹ s⁻¹"}, {"measurement": "Kd", "setting": "[1]", "value": 26.7, "unit": "nM"}]}
